The results in this text go back to FireProtDB (doi:10.1074/jbc.m304177200).

For this data set the following is noted: Kitasatospora aureofaciens; pH 7; Thermal; CD; MOPS 30 mM; reversible: yes(>95%); whole UniProt chain shown.

B1: Guanyl-specific ribonuclease Sa wild type, P05798 (protein)
chain: DVSGTVCLSALPPEATDTLNLIASDGPFPYSQDGVVFQNRESVLPTQSYGYYHEYTVITPGARTRGTRRIITGEATQEDYYTGDHYATFSLIDQTC
As to B1, the Tm (as a rule, the temperature at which the thermal transition is half complete) turned out to be 48.4 °C and the “unfolding enthalpy (van 't Hoff)” value was found to be 95 kcal/mol.
